# Earlier results in publication PMC5964610.
# Target: FER (Arabidopsis thaliana) (UniProt Q9SCZ4)
# UniProt Q9SCZ4, sequence (Q9SCZ4 28-447): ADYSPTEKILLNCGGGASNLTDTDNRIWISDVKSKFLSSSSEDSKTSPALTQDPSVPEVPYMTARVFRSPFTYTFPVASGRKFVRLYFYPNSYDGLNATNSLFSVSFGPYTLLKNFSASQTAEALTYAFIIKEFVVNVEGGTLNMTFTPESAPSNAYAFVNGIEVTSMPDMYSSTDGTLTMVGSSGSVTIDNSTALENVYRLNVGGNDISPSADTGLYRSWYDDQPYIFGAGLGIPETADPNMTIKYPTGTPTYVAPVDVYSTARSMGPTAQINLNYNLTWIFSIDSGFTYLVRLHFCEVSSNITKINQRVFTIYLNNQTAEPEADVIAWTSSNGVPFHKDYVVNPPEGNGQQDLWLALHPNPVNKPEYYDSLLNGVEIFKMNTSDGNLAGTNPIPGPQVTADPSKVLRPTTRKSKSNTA
substance,measurement,value
RALF23 (from UniProt Q9LUS7),Kd,310 nM
